Test results: patent publication US8927207B2, “miRNAs as therapeutic targets in cancer” (Research Foundation of State University of New York, priority 2008, dated 2015)

Tests used:
HCT-116 (null-p53) cells = assay: cell cycle analysis by flow cytometry; type: cell-based, human
Method: (§1) To determine whether the miR-192's impact on cellular proliferation was related to cell cycle control, the effect on cell cycle control was analyzed by flow cytometry using HCT-116 (wt-p53) (FIG. 5A) and HCT-116 (null-p53) (FIG. 5B) cells transfected with non-specific control miR (left line graph) or miR-192 (right line graph). This experiment was performed as follows. The HCT-116 (wt-p53) and HCT-116 (null-p53) cells lines as described above (see Example 3) were transfected with miR-192 precursor and the non-specific control miRNA described as above (see Examples 1 and 2). At 36 hours after transfection, the cells were harvested and resuspended at 0.5-1×10^5 cells/ml in modified Krishan buffer containing 0.1% sodium citrate and 0.3% NP-40 and kept at 4° C. Before being analyzed by flow cytometry, cells were treated with 0.02 mg/ml RNase H and stained with 0.05 mg/ml propidium iodide (Sigma).

DHFR protein = assay: Western immunoblot of DHFR protein after transfection; type: cell-based, human; details: HCT-116 (wt-p53)
Method: In this experiment, human colon cancer cell lines, HCT-116 (wt-p53), cells were transfected with miR-192 or miR-24. The cells were maintained in McCoy's 5A medium (Life Technologies). The media was supplemented with 10% dialyzed fetal bovine serum (Hyclone Laboratories). The cell line were grown at 37° C. in a humidified incubator with 5% CO2.
The HCT-116 (wt-p53) cells tranfected as follows. The cells (2×10^5) were plated in 6-well plates and transfected with 100 nmol/L of either miR-192 or miR-24 precursors or nonspecific control miR (Ambion) after 24 h with Oligofectamine (Invitrogen) according to the manufacturer's instructions.
At 48 hours after transfection with miR-192 or miR-24 precursors or nonspecific control miRNA, the cells were scraped and lysed in radioimmunoprecipitation assay buffer (Sigma). […] Horseradish peroxidase-conjugated antibodies against mouse or rabbit (1:1,000; Santa Cruz Biotechnology) were used as the secondary antibodies.

p53 = assay: Western immunoblot of cell cycle control genes, HCT-116 (wt-p53); type: cell-based, human; details: 48 hours after transfection
Method: (§2) miR-192 expression is dependent on p53. To further analyze the cell cycle control genes involved in miR-192 overexpression, a number of cell cycle control genes were analyzed (p53, p21, Bax, E2F3, Rb). HCT-116 (wt-p53) cells (FIG. 6A) and RKO (wt-p53) cells (FIG. 6B), as described above (see Example 3), were transfected with non-specific miR (FIG. 6A, lane 2; and FIG. 6B, lane 1), DHFR siRNA (FIG. 6A, lane 3; and FIG. 6B, lane 2) and miR-192 (FIG. 6A, lane 4; and FIG. 6B, lane 3) according to the procedure discussed above (see Examples 1 and 2). Non-transfected HCT-116 (wt-p53) was used as a negative control (FIG. 6A, lane 1). Alpha-tubulin was used as a protein loading control.

Bax = assay: as above; type: cell-based, human; details: 48 hours after transfection
Method: as §2

p21 = assay: as above; type: cell-based, human; details: 48 hours after transfection
Method: as §2

TS = assay: western immunoblot of TS protein after transfection; type: cell-based; details: 48 hours after transfection
Method: At 48 h after transfection with miR-215, miR-192 precursors or non-specific control miRNA, the cells were scraped and lysed in RIPA buffer (Sigma). Equal amounts of proteins were resolved by SDS-PAGE on 12% gels by the method of Laemmli, and transferred to polyvinylidene fluoride membranes (BIO-RAD Laboratories). The membranes were then blocked by 5% nonfat milk in TBS-T (Tris-buffered saline and 0.5% Tween-20) at room temperature for 1 h. The primary antibodies used for the analysis included mouse anti-TS mAb (1:400, Millipore), mouse anti-DHFR mAb (1:250, BD Bioscience), mouse anti-p53 mAb (1:1000, DO-1), mouse anti-p21 mAb (1:1000, F-5), and mouse anti-α-tubulin mAb (1:1000, TU-02) purchased from Santa Cruz Biotechnology. Horseradish peroxidase—conjugated antibodies against mouse (1:1000, Santa Cruz Biotechnology) were used as the secondary antibodies. Protein bands were visualized with a chemiluminescence detection system using the Super Signal substrate (BIO-RAD).
At 48 hours after transfection, proteins were extracted from miR-215-transfected cells and from control cells and changes in TS or DHFR protein levels were determined by western immunoblot analysis (FIG. 14).

TS mRNA = assay: real time qRT-PCR of TS mRNA; type: cell-based; details: U-2 OS cells
Method: Expression levels of TS or DHFR mRNA were analyzed using real time qRT-PCR analysis (FIG. 15).

Rb = assay: Western immunoblot of Rb, HCT-116 (wt-p53); type: cell-based, human
Method: The expression of miR-192 on the expression of E2F3 and Rb in HCT-116 (wt-p53) cells was also analyzed. In these experiments, HVT-116 (wt-p53) cells, as described above (see Example 3) were transfected with non-specific miR (FIG. 7, lane 2), DHFR siRNA (FIG. 7, lane 3) or miR-192 (FIG. 7, lane 4) according to the procedure described above (see Examples 1 and 2). One HCT-116 (wt-p53) sample was not transfected, and used as a negative control (FIG. 7, lane 1). Western immunoblot analysis was performed according to the procedure described above (see Example 5), except that rabbit anti-E2F-3 polyclonal antibody (1:1000, C-18) (Santa Cruz Biotechnology) was used.

HCT-116 (wt-p53) cells = assay: cell cycle analysis by flow cytometry; type: cell-based, human; parameters: cell cycle profile G1/S / cell cycle profile G2/S: unit not given here
Method: as §1
miR-215 induces G2-arrest in HCT-116 (wt-p53) and U-2 OS cells. To investigate the mechanism by which miR-215 suppressed cell proliferation in HCT-116 (wt-p53) and U-2 OS cells, the impact of miR-215 on cell cycle control was analyzed by flow cytometry at 36 h after transfection. HCT-116 (wt-p53), HCT-116 (null-p53), U-2 OS and MG63 cells were transfected with miR-215 precursor and the non-specific control miRNA described as above. At 36 h after transfection, cells were harvested and resuspended at 0.5-1 10^5 cells/ml in modified Krishan buffer containing 0.1% sodium citrate and 0.3% NP-40 and kept at 4° C. Before analysis by flow cytometry, cells were treated with 0.02 mg/ml RNase H and stained with 0.05 mg/ml propidium iodide (Sigma).

[1] = HCT-116 (null), 36 hours after transfection

B1: miR-192: microRNA miR-192 (SEQ ID NO:1), transfected into cells as miR-192 precursor (Ambion) (nucleic acid)
chain: GCCGAGACCGAGUGCACAGGGCUCUGACCUAUGAAUUGACAGCCAGUGCUCUCGUCUCCCCUCUGGCUGCCAAUUCCAUAGGUCACAGGUAUGUUCGCCUCAAUGCCAGC
modifications: delivered as precursor, further chemistry not given here
cell cycle profile G1 (HCT-116 (null-p53) cells; [1]): 35.65%
cell cycle profile G1/S (HCT-116 (null-p53) cells; [1]): 0.79 ratio (unitless)
cell cycle profile G2 (HCT-116 (null-p53) cells; [1]): 19.06%
cell cycle profile G2/S (HCT-116 (null-p53) cells; [1]): 0.42 ratio (unitless)
cell cycle profile S (HCT-116 (null-p53) cells; [1]): 45.29%
G1 and G2 arrest (HCT-116 (null-p53) cells; HCT-116 (null-p53)): has not been observed
expression of DHFR protein (DHFR protein; 100 nmol/L precursor, 48 hours after transfection): clearly decreased
potency for decreasing DHFR expression (DHFR protein; compared with positive control miR-24): comparable to miR-24
increase in expression of the p53 protein (p53): over 10 fold
expression of Bax (Bax): not altered
increase in expression of p21 (p21): 10 fold
TS protein levels (TS): clearly decreases
TS mRNA expression (TS mRNA): no reduction
expression of Rb (Rb): decreased expression
cell cycle profile G1 (HCT-116 (wt-p53) cells; 36 hours after transfection): 40.84%
cell cycle profile G1/S (HCT-116 (wt-p53) cells; 36 hours after transfection): 2.83
cell cycle profile G2 (HCT-116 (wt-p53) cells; 36 hours after transfection): 44.71%
cell cycle profile G2/S (HCT-116 (wt-p53) cells; 36 hours after transfection): 3.09
cell cycle profile S (HCT-116 (wt-p53) cells; 36 hours after transfection): 14.45%
G1 arrest (HCT-116 (wt-p53) cells; vs non-specific miR): > 2 fold
G2 arrest (HCT-116 (wt-p53) cells; vs non-specific miR): > 3 fold
